Two substances from PMC2115109 can be followed below.

Assay [1] deals with monomeric actin from rabbit skeletal muscle (rabbit) (UniProt P68135). The experiment in a line: pull-down.
The target of assay [2] is F-actin (actin filaments) from rabbit skeletal muscle (rabbit) (UniProt P68135). Briefly: co-sedimentation.

Where “and” joins values, the source holds several entries; their conditions need not be identical. Identical values can stand only once.

Sequence of CT28N, 28-kD chymotryptic fragment from the NH2-terminal half of human plasma gelsolin (domain or fragment) (P06396 151-406): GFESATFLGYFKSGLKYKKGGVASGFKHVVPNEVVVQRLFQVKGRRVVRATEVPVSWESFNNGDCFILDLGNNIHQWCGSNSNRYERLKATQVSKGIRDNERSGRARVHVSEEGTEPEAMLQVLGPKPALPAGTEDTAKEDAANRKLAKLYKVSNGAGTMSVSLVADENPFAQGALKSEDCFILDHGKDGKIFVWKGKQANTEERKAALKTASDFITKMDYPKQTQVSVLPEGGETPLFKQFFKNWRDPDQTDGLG
Sequence of CT45N, 45-kD NH2-terminal half chymotryptic fragment of human plasma gelsolin (domain or fragment) (P06396 1-406): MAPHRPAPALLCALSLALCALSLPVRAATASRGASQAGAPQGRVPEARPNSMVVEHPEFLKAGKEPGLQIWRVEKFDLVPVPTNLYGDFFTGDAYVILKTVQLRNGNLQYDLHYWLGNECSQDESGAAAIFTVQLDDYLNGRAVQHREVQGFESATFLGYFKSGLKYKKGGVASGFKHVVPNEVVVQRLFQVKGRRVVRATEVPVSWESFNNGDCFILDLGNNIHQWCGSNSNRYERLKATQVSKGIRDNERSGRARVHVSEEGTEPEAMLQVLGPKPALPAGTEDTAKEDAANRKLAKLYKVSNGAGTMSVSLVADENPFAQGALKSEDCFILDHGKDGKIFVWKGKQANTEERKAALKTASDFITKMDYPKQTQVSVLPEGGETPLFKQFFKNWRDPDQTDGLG

For “CT45N, 45-kD NH2-terminal half chymotryptic fragment of human plasma gelsolin (domain or fragment)”, in assay [1], the radioactivity on the beads is 540 cpm. In addition, in assay [2], the percent sedimented amounted to 67%.
For “CT28N, 28-kD chymotryptic fragment from the NH2-terminal half of human plasma gelsolin (domain or fragment)”, in assay [2], the Ka was determined as 5e+06 M⁻¹; the Kd was 200 nM and 280 nM; the percent of input sedimented came out at 100%; the percent sedimented was determined as 100%.

By Kd is commonly meant a measure of binding affinity in units of concentration. A lower Kd goes with tighter binding.
